Results as given in patent US20110091463A1 (AbbVie / Abbott, published 2011).
Numbering of substitutions follows the chain as printed.

Assays:
[1] = target: NGF (Neuroscreen-1 bioassay); assay: cell-based or functional assay
[2] = target: IL-1β (MRC5 bioassay); assay: cell-based or functional assay
[3] = target: T1, IL-6R on TF-1 cells (UniProt P08887 20-468, limits assumed); assay: cell-based or functional assay
T1 sequence (looked up): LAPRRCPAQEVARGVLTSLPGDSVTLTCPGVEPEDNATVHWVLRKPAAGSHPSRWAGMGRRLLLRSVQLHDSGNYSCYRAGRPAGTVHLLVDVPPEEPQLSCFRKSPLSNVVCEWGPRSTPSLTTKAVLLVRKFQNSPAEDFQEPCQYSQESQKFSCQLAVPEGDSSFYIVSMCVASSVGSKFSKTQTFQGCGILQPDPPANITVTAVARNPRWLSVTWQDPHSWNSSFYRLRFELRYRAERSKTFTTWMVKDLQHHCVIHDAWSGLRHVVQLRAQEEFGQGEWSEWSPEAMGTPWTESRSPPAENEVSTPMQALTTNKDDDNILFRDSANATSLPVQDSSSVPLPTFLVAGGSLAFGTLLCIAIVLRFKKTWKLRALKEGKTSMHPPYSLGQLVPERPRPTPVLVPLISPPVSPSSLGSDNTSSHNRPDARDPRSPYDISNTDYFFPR

[4] = target: T2, Recombinant Human IL-1β (human, UniProt P01584 117-269); assay: SPR (Biacore), DVD-Ig captured on chip, antigen injected, 25 C
T2 construct: Bought reagent; also called IL-1b; Il-1b
Experimental: The BIACORE assay (Biacore, Inc, Piscataway, N.J.) determines the affinity of antibodies or DVD-Ig with kinetic measurements of on-rate and off-rate constants. Binding of antibodies or DVD-Ig to a target antigen (for example, a purified recombinant target antigen) is determined by surface plasmon resonance-based measurements with a Biacore® 1000 or 3000 instrument (Biacore® AB, Uppsala, Sweden) using running HBS-EP (10 mM HEPES [pH 7.4], 150 mM NaCl, 3 mM EDTA, and 0.005% surfactant P20) at 25° C. All chemicals are obtained from Biacore® AB (Uppsala, Sweden) or otherwise from a different source as described in the text. For example, approximately 5000 RU of goat anti-mouse IgG, (Fcγ), fragment specific polyclonal antibody (Pierce Biotechnology Inc, Rockford, Ill.) diluted in 10 mM sodium acetate (pH 4.5) is directly immobilized across a CM5 research grade biosensor chip using a standard amine coupling kit according to manufacturer's instructions and procedures at 25 μg/ml. Unreacted moieties on the biosensor surface are blocked with ethanolamine. Modified carboxymethyl dextran surface in flowcell 2 and 4 is used as a reaction surface. Unmodified carboxymethyl dextran without goat anti-mouse IgG in flow cell 1 and 3 is used as the reference surface. For kinetic analysis, rate equations derived from the 1:1 Langmuir binding model are fitted simultaneously to association and dissociation phases of all eight injections (using global fit analysis) with the use of Biaevaluation 4.0.1 software. Purified antibodies or DVD-Ig are diluted in HEPES-buffered saline for capture across goat anti-mouse IgG specific reaction surfaces. […] The association and dissociation rate constants, kₒₙ (M⁻¹ s⁻¹) and koff (s⁻¹) are determined under a continuous flow rate of 25 μl/min. […] The equilibrium dissociation constant (M) of the reaction between antibodies or DVD-Igs and the target antigen is then calculated from the kinetic rate constants by the following formula: KD=koff/kₒₙ. Binding is recorded as a function of time and kinetic rate constants are calculated.

[5] = target: T3, Recombinant Human IL-6 sR (human, UniProt P08887 20-358, limits assumed); assay: SPR (Biacore), antibody captured on chip, antigen injected, 25 C
T3 construct: Bought soluble receptor ('sR'); also called IL-6R
T3 sequence (looked up): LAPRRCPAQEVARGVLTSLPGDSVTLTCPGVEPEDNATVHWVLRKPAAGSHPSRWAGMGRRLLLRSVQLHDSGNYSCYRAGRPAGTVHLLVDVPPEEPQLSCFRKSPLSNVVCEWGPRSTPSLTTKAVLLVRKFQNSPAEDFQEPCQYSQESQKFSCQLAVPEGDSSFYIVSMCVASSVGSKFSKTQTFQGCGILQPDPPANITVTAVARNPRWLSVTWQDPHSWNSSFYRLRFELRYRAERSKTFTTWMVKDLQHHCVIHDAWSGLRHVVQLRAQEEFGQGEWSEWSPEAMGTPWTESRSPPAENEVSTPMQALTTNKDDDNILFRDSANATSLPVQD
Experimental: (§1) The BIACORE assay (Biacore, Inc, Piscataway, N.J.) determines the affinity of antibodies or DVD-Ig with kinetic measurements of on-rate and off-rate constants. Binding of antibodies or DVD-Ig to a target antigen (for example, a purified recombinant target antigen) is determined by surface plasmon resonance-based measurements with a Biacore® 1000 or 3000 instrument (Biacore® AB, Uppsala, Sweden) using running HBS-EP (10 mM HEPES [pH 7.4], 150 mM NaCl, 3 mM EDTA, and 0.005% surfactant P20) at 25° C. All chemicals are obtained from Biacore® AB (Uppsala, Sweden) or otherwise from a different source as described in the text. For example, approximately 5000 RU of goat anti-mouse IgG, (Fcγ), fragment specific polyclonal antibody (Pierce Biotechnology Inc, Rockford, Ill.) diluted in 10 mM sodium acetate (pH 4.5) is directly immobilized across a CM5 research grade biosensor chip using a standard amine coupling kit according to manufacturer's instructions and procedures at 25 μg/ml. Unreacted moieties on the biosensor surface are blocked with ethanolamine. Modified carboxymethyl dextran surface in flowcell 2 and 4 is used as a reaction surface. Unmodified carboxymethyl dextran without goat anti-mouse IgG in flow cell 1 and 3 is used as the reference surface. For kinetic analysis, rate equations derived from the 1:1 Langmuir binding model are fitted simultaneously to association and dissociation phases of all eight injections (using global fit analysis) with the use of Biaevaluation 4.0.1 software. Purified antibodies or DVD-Ig are diluted in HEPES-buffered saline for capture across goat anti-mouse IgG specific reaction surfaces. Antibodies or DVD-Ig to be captured as a ligand (25 μg/ml) are injected over reaction matrices at a flow rate of 5 μl/min. The association and dissociation rate constants, kₒₙ (M⁻¹ s⁻¹) and koff (s⁻¹) are determined under a continuous flow rate of 25 μl/min. Rate constants are derived by making kinetic binding measurements at different antigen concentrations ranging from 10-200 nM. The equilibrium dissociation constant (M) of the reaction between antibodies or DVD-Igs and the target antigen is then calculated from the kinetic rate constants by the following formula: KD=koff/kₒₙ. Binding is recorded as a function of time and kinetic rate constants are calculated.

[6] = target: T4, Recombinant Human β-NGF (human, UniProt P01138 122-241); assay: as above
T4 construct: Bought reagent
T4 sequence (P01138 122-241 limits assumed): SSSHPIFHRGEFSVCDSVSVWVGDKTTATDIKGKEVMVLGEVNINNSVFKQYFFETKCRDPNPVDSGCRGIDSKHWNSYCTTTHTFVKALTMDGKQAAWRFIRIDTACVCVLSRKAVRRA
Experimental: as §1

Sequence of NGF (Neuroscreen-1 bioassay) (P01138 122-241): as the sequence (P01138 122-241 limits assumed) above
Sequence of IL-1β (MRC5 bioassay) (P01584 117-269): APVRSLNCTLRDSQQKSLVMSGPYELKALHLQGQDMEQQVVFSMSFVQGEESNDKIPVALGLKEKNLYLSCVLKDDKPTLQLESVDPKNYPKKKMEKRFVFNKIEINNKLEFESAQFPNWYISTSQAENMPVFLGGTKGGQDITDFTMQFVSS

B1: DVD949 (bispecific antibody, human IgG1, kappa)
heavy: not shown
light: DIQMTQSPSSLSASVGDRVTITCRASEDIYNALAWYQQKPGKAPKLLIYNTDTLHTGVPSRFSGSGSGTDYTLTISSLQPEDFATYFCQHYFHYPRTFGQGTKVEIKRTVAAPDIQMTQSPSSLSASVGDRVTITCRASGNIHNYLTWYQQTPGKAPKLLIYNAKTLADGVPSRFSGSGSGTDYTFTISSLQPEDIATYYCQHFWSIPYTFGQGTKLQITTVAAPSVFIFPPSDEQLKSGTASVVCLLNNFYPREAKVQWKVDNALQSGNSQESVTEQDSKDSTYSLSSTLTLSKADYEKHKVYACEVTHQGLSSPVTKSFNRGEC
With B1 the “N-Terminal VD NGF Inhibition Assay EC50 pM (ERK1/2 phosphorylation in Neuroscreen-1 cells)” value [1] was 55 pM and the “N-Terminal VD IL-1β Neutralization Assay EC50 nM (IL-8 release by MRC5 cells)” value [2] was 0.148 nM.

B2: DVD1207 (bispecific antibody, human IgG1, kappa)
heavy: not shown
light: DIQMTQSPSSLSASVGDRVTITCRASQDISSYLNWYQQKPGKAPKLLIYYTSRLHSGVPSRFSGSGSGTDFTFTISSLQPEDIATYYCQQGNTLPYTFGQGTKVEIKRTVAAPDIQMTQSPSSLSASVGDRVTITCRASEDIYNALAWYQQKPGKAPKLLIYNTDTLHTGVPSRFSGSGSGTDYTLTISSLQPEDFATYFCQHYFHYPRTFGQGTKVEIKRTVAAPSVFIFPPSDEQLKSGTASVVCLLNNFYPREAKVQWKVDNALQSGNSQESVTEQDSKDSTYSLSSTLTLSKADYEKHKVYACEVTHQGLSSPVTKSFNRGEC
For B2, the “C-Terminal VD NGF Inhibition Assay EC50 pM (ERK1/2 phosphorylation in Neuroscreen-1 cells)” value [1] was greater than 5000 pM and the “N-Terminal VD IL-6 Inhibition Assay EC50 µM (IL-6 induced pSTAT3 in TF-1 cells)” value [3] was 0.089 µM.

B3: DVD950 (bispecific antibody, human IgG1, kappa)
heavy: not shown
light: DIQMTQSPSSLSASVGDRVTITCRASGNIHNYLTWYQQTPGKAPKLLIYNAKTLADGVPSRFSGSGSGTDYTFTISSLQPEDIATYYCQHFWSIPYTFGQGTKLQITTVAAPDIQMTQSPSSLSASVGDRVTITCRASEDIYNALAWYQQKPGKAPKLLIYNTDTLHTGVPSRFSGSGSGTDYTLTISSLQPEDFATYFCQHYFHYPRTFGQGTKVEIKRTVAAPSVFIFPPSDEQLKSGTASVVCLLNNFYPREAKVQWKVDNALQSGNSQESVTEQDSKDSTYSLSSTLTLSKADYEKHKVYACEVTHQGLSSPVTKSFNRGEC
notes: DVD-Ig; also called DVD950H; DVD950L
For B3, the Kd [4] was 495 pM, the koff [4] was 0.000487 s⁻¹ and the kon [4] was 983000 M⁻¹ s⁻¹. For the same binder, the “C-Terminal VD NGF Inhibition Assay EC50 pM (ERK1/2 phosphorylation in Neuroscreen-1 cells)” value [1] was 316 pM and the “C-Terminal VD IL-1β Neutralization Assay EC50 nM (IL-8 release by MRC5 cells)” value [2] was 26 nM.

B4: DVD933 (bispecific antibody, human IgG1, kappa)
heavy: not shown
light: DIQMTQSPSSLSASVGDRVTITCRASEDIYNALAWYQQKPGKAPKLLIYNTDTLHTGVPSRFSGSGSGTDYTLTISSLQPEDFATYFCQHYFHYPRTFGQGTKVEIKRTVAAPDVLMTQTPLSLPVTPGEPASISCTSSQNIVHSNGNTYLEWYLQKPGQSPQLLIYKVSNRFSGVPDRFSGSGSGTDFTLKISRVEAEDVGVYYCFQVSHVPYTFGGGTKVEIKRTVAAPSVFIFPPSDEQLKSGTASVVCLLNNFYPREAKVQWKVDNALQSGNSQESVTEQDSKDSTYSLSSTLTLSKADYEKHKVYACEVTHQGLSSPVTKSFNRGEC
B4 was tested, and the “N-Terminal VD NGF Inhibition Assay EC50 pM (ERK1/2 phosphorylation in Neuroscreen-1 cells)” value [1] was 49 pM.

B5: DVD934 (bispecific antibody, human IgG1, kappa)
heavy: not shown
light: DVLMTQTPLSLPVTPGEPASISCTSSQNIVHSNGNTYLEWYLQKPGQSPQLLIYKVSNRFSGVPDRFSGSGSGTDFTLKISRVEAEDVGVYYCFQVSHVPYTFGGGTKVEIKRTVAAPDIQMTQSPSSLSASVGDRVTITCRASEDIYNALAWYQQKPGKAPKLLIYNTDTLHTGVPSRFSGSGSGTDYTLTISSLQPEDFATYFCQHYFHYPRTFGQGTKVEIKRTVAAPSVFIFPPSDEQLKSGTASVVCLLNNFYPREAKVQWKVDNALQSGNSQESVTEQDSKDSTYSLSSTLTLSKADYEKHKVYACEVTHQGLSSPVTKSFNRGEC
With B5 the “C-Terminal VD NGF Inhibition Assay EC50 pM (ERK1/2 phosphorylation in Neuroscreen-1 cells)” value [1] was greater than 5000 pM.

B6: AB054 (antibody, V domains shown)
VH: EVQLQESGPGLVRPSQTLSLTCTVSGYSITSDHAWSWVRQPPGRGLEWIGYISYSGITTYNPSLKSRVTMLRDTSKNQFSLRLSSVTAADTAVYYCARSLARTTAMDYWGQGSLVTVSS
VL: DIQMTQSPSSLSASVGDRVTITCRASQDISSYLNWYQQKPGKAPKLLIYYTSRLHSGVPSRFSGSGSGTDFTFTISSLQPEDIATYYCQQGNTLPYTFGQGTKVEIKR
notes: Parent antibody; also called IL-6R parent antibody; AB054VH
For B6, the “IL-6 Inhibition Assay EC50 µM (IL-6 induced pSTAT3 in TF-1 cells)” value [3] was 0.07 µM, the Kd [5] was 614 pM and the koff [5] was 0.000206 s⁻¹. The kon [5] was 336000 M⁻¹ s⁻¹.

B7: AB020 (antibody, V domains shown)
VH: QVQLQESGPGLVKPSETLSLTCTVSGFSLIGYDLNWIRQPPGKGLEWIGIIWGDGTTDYNSAVKSRVTISKDTSKNQFSLKLSSVTAADTAVYYCARGGYWYATSYYFDYWGQGTLVTVSS
VL: B6 VL with D28S, S31N, Y32N, L54F, G91E, N92H, V104L
notes: Parent antibody; also called AB020VH
In the case of B7, the Kd [6] is reported as 6.73 pM, the koff [6] is reported as 4.08e-06 s⁻¹ and the kon [6] is reported as 606000 M⁻¹ s⁻¹.
